PMC7188906

B1: human ACKR4-EYFP [human] / fluorescently labeled human CCL19^Dy649P1 [modified: Dy649P1 (as CoA conjugate) attached site-specifically to the S6-tag by the phosphopantetheinyl transferase Sfp; Dy649P1 (as CoA … (parent)
chain 1: GTNDAEDCCLSVTQKPIPGYIVRNFHYLLIKDGCRVPAVVFTTLRGRQLCAPPDQPWVERIIQRLQRTSAKMKRRSS
chain 2: MALEQNQSTDYYYEENEMNGTYDYSQYELICIKEDVREFAKVFLPVFLTIVFVIGLAGNSMVVAIYAYYKKQRTKTDVYILNLAVADLLLLFTLPFWAVNAVHGWVLGKIMCKITSALYTLNFVSGMQFLACISIDRYVAVTKVPSQSGVGKPCWIICFCVWMAAILLSIPQLVFYTVNDNARCIPIFPRYLGTSMKALIQMLEICIGFVVPFLIMGVCYFITARTLMKMPNIKISRPLKVLLTVVIVFIVTQLPYNIVKFCRAIDIIYSLITSCNMSKRMDIAIQVTESIALFHSCLNPILYVFMGASFKNYVMKVAKKYGSWRRQRQSVEEFPFDSEGPTEPTSTFSI

Variants of: B1
Test: flow cytometry on cells
Settings: with fluorescently labeled human CCL19^Dy649P1 [modified: Dy649P1 (as CoA conjugate) attached site-specifically to the S6-tag by the phosphopantetheinyl transferase; 25 nM CCL19Dy649P1 at 8°C; HeLa cells; read off a plot

Q: chain 2 S309A S323A S330A was tested. Which percent of parent did it give?
A: Its percent of parent is 120 % of wt.

Q: For chain 2 T142A T226A, which percent of parent is on record?
A: Its percent of parent is 90 % of wt.

Q: For chain 2 S236A, which percent of parent is on record?
A: The percent of parent was 90 % of wt.

Q: Which percent of parent does the source give for chain 2 S148A here?
A: Its percent of parent is 85 % of wt.

Q: chain 2 Y138F was tested. Which percent of parent did it give?
A: The percent of parent was 72 % of wt.

Q: For chain 2 Y79F, which percent of parent is on record?
A: The percent of parent was 110 % of wt.

Q: With chain 2 T226A as the variant, how does the percent of parent read?
A: Its percent of parent is 83 % of wt.

Q: For chain 2 S146A, which percent of parent is on record?
A: The percent of parent was 85 % of wt.

Q: How did the percent of parent turn out when chain 2 T142A was run?
A: Its percent of parent is 90 % of wt.

Q: For chain 2 S330A, which percent of parent is on record?
A: Its percent of parent is 83 % of wt.

Q: Which percent of parent does the source give for chain 2 S323A here?
A: Its percent of parent is 87 % of wt.

Q: With chain 2 S309A as the variant, how does the percent of parent read?
A: Its percent of parent is 110 % of wt.

Q: For chain 2 T142A T226A S309A S323A S330A, which percent of parent is on record?
A: Its percent of parent is 110 % of wt.

Q: Which percent of parent does the source give for chain 2 Y68F here?
A: Its percent of parent is 93 % of wt.
